The target in data set [1] is T1, SpGpsB1-63 (Streptococcus pneumoniae, UniProt Q8DR57).
T1 construct: The SpGpsB1-63 expression construct (pET28SpGpsB1-63) was prepared by PCR amplification of gpsB; His6 (N, cleaved yes); made in house; host or cells: E. coli BL21(DE3)
As to the kind of experiment: Fluorescence polarisation binding to SpGpsB1-63. The conditions noted are these: FP. An excerpt:
(§1) 75 the BsGpsB5-64:BsPBP11-17 complex.
(Fluorescence polarisation rises when a labelled molecule tumbles more slowly, as on binding a larger partner.)

The target in data set [2] is T2, BsGpsB1-68Lys32Glu (Bacillus subtilis, UniProt P0CI74, K32E).
T2 construct: His6 (N, cleaved yes); made in house; host or cells: E. coli BL21(DE3)
T2 sequence (P0CI74 1-68 K32E): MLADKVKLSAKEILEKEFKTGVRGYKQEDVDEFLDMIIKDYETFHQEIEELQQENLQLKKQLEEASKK
As to the kind of experiment: Fluorescence polarisation binding to BsGpsB1-68Lys32Glu. Particulars: FP, relative to wild-type LmPBPA1 peptide.
Excerpt: as §1

Data set [3] concerns the target T3, BsPBP1_(1-32), TAMRA-labelled at position 16 (B. subtilis, UniProt P39793 1-32, Ser16Cys, TAMRA (maleimide) at position 16).
T3 construct: PBP1, Bacillus subtilis, residues 1-32; also called BsPBPA1_(1-32); BsPBP1A_(1-32); source: E. coli, His-tagged MBP fusion purified (Ni-NTA), labelled, TEV-cleaved, ultrafiltration
T3 peptide (looked up): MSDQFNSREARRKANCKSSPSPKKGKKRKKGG
As to the kind of experiment: fluorescence polarisation; GpsB protein titrated into fluorescently labelled peptide; 10 mM Tris.HCl pH 8.0, 250 mM NaCl, 0.1% reduced Triton X-100; fit to a 1:1 interaction model. Particulars: both partners purified.

Data set [4] is described as follows: Circular dichroism thermal unfolding of BsGpsB1-68 variants. It counts as physicochemical. Particulars: CD at 222 nm vs temperature, 4.5 μM protein, 20 mM sodium phosphate (pH 7.8) 150 mM NaCl, 1 °C/min. On the procedure: CD spectra were recorded on a JASCO J-810 spectropolarimeter with a PTC-4235 Peltier temperature controller using 1 mm path length quartz cuvettes. For full wavelength scans a scan speed of 10 nm^−1min^−1 and a response time of 4 s were used, the final spectra were the average of at least four measurements. BsPBP1_1-32 CD spectra were recorded at 4 °C in a buffer of 20 mM sodium phosphate, pH 7.3 at a peptide concentration of 25 μM. Peptide helical contents were estimated from molar ellipticities at 222 nm using the equation helix = [θ]222 nm / (39,500(1–2.57/n))[78] where n is the number of residues in the peptide. LmPBPA1_1-15 CD spectra were analysed at 40 μM in 20 mM sodium phosphate buffer, pH 7.8, for samples containing 0, 40 and 60% trifluoroethanol (TFE). For samples containing 80% TFE, 5 mM sodium phosphate buffer, pH 7.8, was used. The CD spectra of BsGpsB1-68 proteins were measured at a concentration of 4.5 μM in a buffer of 20 mM sodium phosphate (pH 7.8) 150 mM NaCl. For thermal melt experiments, a response time of 8 s and scan rate of 1 °C^−1min^−1 were used. All thermal melts were reversible as CD spectra recorded before and after the melts in the wavelength range 200–240 nm could be superimposed.

These results are taken from paper PMC6335420, “The cell cycle regulator GpsB functions as cytosolic adaptor for multiple cell wall enzymes” (Nature Communications, 2019).

Residues, ends and D or L forms follow the SMILES beside them. *: point of attachment. Fluorescein(5-Mal) = O=C1OC2(c3ccc(O)cc3Oc3cc(O)ccc32)c2ccc(N3C(=O)CC(*)C3=O)cc21; X1 = CN(C)c1ccc2c(-c3ccc(N4C(=O)CC(*)C4=O)cc3C(=O)[O-])c3ccc(=[N+](C)C)cc-3oc2c1; 5FAM = O=C1OC2(c3ccc(O)cc3Oc3cc(O)ccc32)c2ccc(C(=O)*)cc21 Some results are limits rather than exact numbers.

T1 sequence (Q8DR57 1-63): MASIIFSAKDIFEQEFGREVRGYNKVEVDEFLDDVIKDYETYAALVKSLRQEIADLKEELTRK

As to `CC[C@H](C)[C@H](NC(=O)[C@H](CC(C)C)NC(=O)[C@H](CCCNC(=N)N)NC(=O)[C@H](CCSC)NC(=O)CNC(=O)c1ccc2c(c1)C(=O)OC21c2ccc(O)cc2Oc2cc(O)ccc21)C(=O)N[C@@H](CS)C(=O)N[C@@H](CCSC)C(=O)N[C@@H](CCCNC(=N)N)C(=O)N[C@@H](CCCCN)C(=O)N[C@@H](Cc1ccccc1)C(=O)N[C@@H](CC(N)=O)C(=O)N[C@@H](CO)C(=O)N[C@@H](Cc1c[nH]cn1)C(=O)N[C@@H](CO)C(=O)N[C@H](C(=O)N1CCC[C@H]1C(=O)N[C@H](C(=O)N[C@@H](CCCNC(=N)N)C(=O)O)[C@@H](C)CC)[C@@H](C)CC` [Fluorescein-SpPBP2b1-17] (5FAM-GMRLICMRKFNSHSIPIR-OH; N-terminus and C-terminus assumed), the “binding to SpGpsB1-63 (in words)” value in data set [1] was “not”.
As for `CC[C@H](C)[C@H](NC(=O)[C@@H]1CCCN1C(=O)[C@H](CSC1CC(=O)N(c2ccc(-c3c4ccc(=[N+](C)C)cc-4oc4cc(N(C)C)ccc34)c(C(=O)[O-])c2)C1=O)NC(=O)[C@@H](NC(=O)[C@H](CCC(N)=O)NC(=O)[C@H](C)NC(=O)[C@H](CC(C)C)NC(=O)[C@H](CCCCN)NC(=O)[C@H](CCCCN)NC(=O)[C@H](CCCNC(=N)N)NC(=O)[C@H](CC(=O)O)NC(=O)[C@H](CO)NC(=O)[C@H](CCCCN)NC(=O)[C@H](CO)NC(=O)[C@H](CCCCN)NC(=O)[C@H](CCCNC(=N)N)NC(=O)[C@H](CC(C)C)NC(=O)[C@@H](NC(=O)[C@@H](NC(=O)[C@H](CO)NC(=O)[C@H](CC(=O)O)NC(=O)[C@H](CO)NC(=O)[C@H](CC(=O)O)NC(=O)[C@H](CCSC)NC(=O)[C@H](CO)NC(=O)CN)[C@@H](C)O)[C@@H](C)CC)C(C)C)C(=O)O` (stereo partly shown) [TAMRA-SpPBP2a23-45 Arg31LysArg33Lys] (H-GSMDSDSTILRKSKSDRKKLAQVC(X1)PI-OH), in data set [1] (relative to wild-type SpPBP2a23-45), the “reduction in affinity for SpGpsB1-63” value is greater than 25 fold.
As for `CC[C@H](C)[C@H](NC(=O)[C@@H](NC(=O)[C@H](CCCNC(=N)N)NC(=O)[C@H](CCCCN)NC(=O)[C@@H](NC(=O)[C@H](Cc1c[nH]c2ccccc12)NC(=O)[C@H](CCC(=O)O)NC(=O)[C@H](CCSC)NC(=O)CNC(=O)[C@H](CO)NC(=O)CNC(=O)[C@H](CO)NC(=O)CN)[C@@H](C)O)C(C)C)C(=O)N[C@@H](CCCNC(=N)N)C(=O)N[C@@H](Cc1ccc(O)cc1)C(=O)N[C@@H](C)C(=O)N[C@H](C(=O)N[C@@H](CCCCN)C(=O)N[C@@H](CC(N)=O)C(=O)N[C@@H](CCCNC(=N)N)C(=O)N[C@@H](CCCCN)C(=O)N[C@@H](CO)C(=O)N1CCC[C@H]1C(=O)N[C@@H](C)C(=O)N[C@@H](CCC(=O)O)C(=O)N[C@@H](CC(N)=O)C(=O)N[C@@H](CCCNC(=N)N)C(=O)N[C@@H](CCCNC(=N)N)C(=O)N[C@@H](CCCNC(=N)N)C(=O)N[C@H](C(=O)NCC(=O)N[C@@H](CCCCN)C(=O)N[C@@H](CO)C(=O)N[C@@H](CC(C)C)C(=O)N[C@@H](CSC1CC(=O)N(c2ccc3c(c2)C(=O)OC32c3ccc(O)cc3Oc3cc(O)ccc32)C1=O)C(=O)N[C@@H](CO)C(=O)O)C(C)C)[C@@H](C)O` (stereo partly shown) [Fluorescein-SpPBP2x1-29] (H-GSGSGMEWTKRVIRYATKNRKSPAENRRRVGKSLC(Fluorescein(5-Mal))S-OH; N-terminus and C-terminus assumed), in data set [1], the “binding to SpGpsB1-63 (in words)” value is “interacts”.
Take `CSCC[C@H](NC(=O)[C@H](CO)NC(=O)CN)C(=O)N[C@@H](C)C(=O)N[C@@H](CC(=O)O)C(=O)N[C@@H](CCCCN)C(=O)N1CCC[C@H]1C(=O)N[C@@H](CCC(N)=O)C(=O)N[C@H](C(=O)N[C@@H](C)C(=O)N[C@@H](CO)C(=O)N[C@@H](CCC(N)=O)C(=O)N[C@@H](Cc1ccc(O)cc1)C(=O)N[C@@H](CCCNC(=N)N)C(=O)N[C@@H](CC(N)=O)C(=O)N[C@@H](CCCCN)C(=O)N[C@@H](CCC(N)=O)C(=O)N[C@@H](CCCNC(=N)N)C(=O)NCC(=O)NCC(=O)N[C@@H](CSC1CC(=O)N(c2ccc3c(c2)C(=O)OC32c3ccc(O)cc3Oc3cc(O)ccc32)C1=O)C(=O)N[C@@H](CCCCN)C(=O)O)[C@@H](C)O` (stereo partly shown) [Fluorescein-LmPBPA11-20 Arg8AlaSer16Arg] (H-GSMADKPQTASQYRNKQRGGC(Fluorescein(5-Mal))K-OH; N-terminus and C-terminus assumed): in data set [2], the “reduction in affinity for BsGpsB1-68Lys32Glu” value is on record as “at least 10 fold”.

B1: BsGpsB_(1-68)^Asp35Ala (domain or fragment, B. subtilis, UniProt P0CI74 1-68, looked up)
chain: MLADKVKLSAKEILEKEFKTGVRGYKQEDVDKFLAMIIKDYETFHQEIEELQQENLQLKKQLEEASKK
notes: GpsB, Bacillus subtilis, residues 1-68; source: E. coli, purified (Ni-NTA, thrombin, size exclusion)
Consider B1, for which the “fold reduction in affinity against wild type” value in data set [3] was greater than 8 fold.

B2: BsGpsB1-68^Glu17Ala: BsGpsB1-68 variant (protein)
chain: MLADKVKLSAKEILEKAFKTGVRGYKQEDVDKFLDMIIKDYETFHQEIEELQQENLQLKKQLEEASKK
modifications: left off: His6, N-terminal, cleaved
notes: BsGpsB1-68 variant
B2: the “impact of mutation on protein stability” value in data set [4] was “little impact on protein stability”.

B3: BsGpsB1-68^Asp35Ala: BsGpsB1-68 variant (protein)
chain: MLADKVKLSAKEILEKEFKTGVRGYKQEDVDKFLAMIIKDYETFHQEIEELQQENLQLKKQLEEASKK
modifications: left off: His6, N-terminal, cleaved
notes: BsGpsB1-68 variant
For B3, in data set [4], the “impact of mutation on protein stability” value is “little impact on protein stability”.

B4: BsGpsB1-68^Asp31Ala: BsGpsB1-68 variant (protein)
chain: MLADKVKLSAKEILEKEFKTGVRGYKQEDVAKFLDMIIKDYETFHQEIEELQQENLQLKKQLEEASKK
modifications: left off: His6, N-terminal, cleaved
notes: BsGpsB1-68 variant
In the case of B4, the “impact of mutation on protein stability” value in data set [4] was “little impact on protein stability”.

B5: BsGpsB^Tyr25Phe: BsGpsB1-68 variant (protein)
chain: MLADKVKLSAKEILEKEFKTGVRGFKQEDVDKFLDMIIKDYETFHQEIEELQQENLQLKKQLEEASKK
modifications: left off: His6, end not stated, cleaved
notes: BsGpsB1-68 variant
In the case of B5, the “impact of mutation on protein stability” value in data set [4] is listed as “little impact on protein stability”.

B6: BsGpsB_(1-68)^Glu17Ala (domain or fragment, B. subtilis, UniProt P0CI74 1-68, looked up)
chain: MLADKVKLSAKEILEKAFKTGVRGYKQEDVDKFLDMIIKDYETFHQEIEELQQENLQLKKQLEEASKK
notes: as for B1
Take B6: in data set [3], the “fold reduction in affinity against wild type” value was greater than 8 fold.
